T1: Recombinant human BCMA-Fc fusion protein (R&D Systems catalog #193-BC-050) (human, UniProt Q02223 1-54)
T1 construct: also called hBCMA-Fc; Fc-BCMA Hu; not shown: Fc part of the bought fusion protein
T1 sequence: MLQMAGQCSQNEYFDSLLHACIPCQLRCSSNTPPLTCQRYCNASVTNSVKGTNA

T2: monomeric human BCMA (human, UniProt Q02223 1-54, limits assumed)
T2 construct: also called monomeric BCMA antigen
T2 sequence: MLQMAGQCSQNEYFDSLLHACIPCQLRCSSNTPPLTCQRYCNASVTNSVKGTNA


Key:
[1] = molecular target: T1, Recombinant human BCMA-Fc fusion …; experiment: SPR, Fc-BCMA, two-state model, step 2
[2] = molecular target: T3, Fc-fusion cyno BCMA (in-house; Cat# BCMW6.001) (cyno, UniProt Q02223 1-54 (human entry)); experiment: SPR, Fc-BCMA, two-state model, step 2
T3 construct: also called Fc-BCMA Cy; cyno Fc-BCMA; not shown: Fc part

[3] = molecular target: T1, Recombinant human BCMA-Fc fusion …; experiment: SPR, Fc-BCMA, two-state model, first complex
[4] = molecular target: T3, Fc-fusion cyno BCMA (in-house; Cat# …); experiment: SPR, Fc-BCMA, two-state model, first complex
[5] = molecular target: T1, Recombinant human BCMA-Fc fusion …; experiment: SPR, Fc-BCMA, two-state model, step 1 (kon1); first step (kon1)
[6] = molecular target: T3, Fc-fusion cyno BCMA (in-house; Cat# …); experiment: as above
[7] = molecular target: T1, Recombinant human BCMA-Fc fusion …; experiment: SPR, Fc-BCMA, two-state model, step 1 (koff1); first step (koff1)
[8] = molecular target: T3, Fc-fusion cyno BCMA (in-house; Cat# …); experiment: as above
[9] = molecular target: T1, Recombinant human BCMA-Fc fusion …; experiment: SPR, Fc-BCMA, two-state model, Final KD; Final complex KD, two-state model
[10] = molecular target: T3, Fc-fusion cyno BCMA (in-house; Cat# …); experiment: as above
[11] = molecular target: T1, Recombinant human BCMA-Fc fusion …; experiment: SPR, human Fc-BCMA
[12] = molecular target: T2, monomeric human BCMA; experiment: SPR
[13] = molecular target: T2, monomeric human BCMA; experiment: SPR, monomeric human BCMA

Binder	koff2 [1] [s⁻¹]	kon2 [1] [s⁻¹]	koff2 [2] [s⁻¹]	kon2 [2] [s⁻¹]	KD1 [3] [nM]	KD1 [4] [nM]	kon [5] [M⁻¹ s⁻¹]	kon [6] [M⁻¹ s⁻¹]	koff [7] [s⁻¹]	koff [8] [s⁻¹]	Kd [9] [nM]	Kd [10] [nM]	fold weaker affinity than BCMB72 [11] [fold]	fold weaker affinity than BCMB69 [12] [fold]	Kd [13] [nM]	koff [13] [s⁻¹]	kon [13] [M⁻¹ s⁻¹]
BC3B8 (BCMA×CD3 bispecific antibody, BCMB123 × CD3B219) (bispecific antibody, human IgG4 S228P, lambda, F234A L235A, IgG4 made by Fab arm exchange; also called B123 × B219) heavy 1: EVQLVESGGGLVQPGGSLRLSCAASGFTFNTYAMNWVRQAPGKGLEWVARIRSKYNNYATYYAASVKGRFTISRDDSKNSLYLQMNSLKTEDTAVYYCARHGNFGNSYVSWFAYWGQGTLVTVSSASTKGPSVFPLAPCSRSTSESTAALGCLVKDYFPEPVTVSWNSGALTSGVHTFPAVLQSSGLYSLSSVVTVPSSSLGTKTYTCNVDHKPSNTKVDKRVESKYGPPCPPCPAPEAAGGPSVFLFPPKPKDTLMISRTPEVTCVVVDVSQEDPEVQFNWYVDGVEVHNAKTKPREEQFNSTYRVVSVLTVLHQDWLNGKEYKCKVSNKGLPSSIEKTISKAKGQPREPQVYTLPPSQEEMTKNQVSLTCLVKGFYPSDIAVEWESNGQPENNYKTTPPVLDSDGSFLLYSKLTVDKSRWQEGNVFSCSVMHEALHNHYTQKSLSLSLGK light 1: QTVVTQEPSLTVSPGGTVTLTCRSSTGAVTTSNYANWVQQKPGQAPRGLIGGTNKRAPGTPARFSGSLLGGKAALTLSGVQPEDEAEYYCALWYSNLWVFGGGTKLTVLGQPKAAPSVTLFPPSSEELQANKATLVCLISDFYPGAVTVAWKADSSPVKAGVETTTPSKQSNNKYAASSYLSLTPEQWKSHRSYSCQVTHEGSTVEKTVAPTECS heavy 2: not shown light 2: SYVLTQPPSVSVAPGQTARITCGGNNIGSKSVHWYQQPPGQAPVVVVYDDSDRPSGIPERFSGSNSGNTATLTISRVEAGDEAVYYCQVWDSSSDHVVFGGGTKLTVLGQPKAAPSVTLFPPSSEELQANKATLVCLISDFYPGAVTVAWKADSSPVKAGVETTTPSKQSNNKYAASSYLSLTPEQWKSHRSYSCQVTHEGSTVEKTVAPTECS	0.000594	0.00313	0.000326	0.00194	0.91	6.77	1.35e+06	1.09e+06	0.00123	0.00734	0.14	0.97					
BC3B11 (BCMA×CD3 bispecific antibody, BCMB176 × CD3B219) (bispecific antibody, human IgG4 S228P, lambda, F234A L235A, IgG4 made by Fab arm exchange; also called B176 × B219) heavy 1: EVQLVESGGGLVQPGGSLRLSCAASGFTFNTYAMNWVRQAPGKGLEWVARIRSKYNNYATYYAASVKGRFTISRDDSKNSLYLQMNSLKTEDTAVYYCARHGNFGNSYVSWFAYWGQGTLVTVSSASTKGPSVFPLAPCSRSTSESTAALGCLVKDYFPEPVTVSWNSGALTSGVHTFPAVLQSSGLYSLSSVVTVPSSSLGTKTYTCNVDHKPSNTKVDKRVESKYGPPCPPCPAPEAAGGPSVFLFPPKPKDTLMISRTPEVTCVVVDVSQEDPEVQFNWYVDGVEVHNAKTKPREEQFNSTYRVVSVLTVLHQDWLNGKEYKCKVSNKGLPSSIEKTISKAKGQPREPQVYTLPPSQEEMTKNQVSLTCLVKGFYPSDIAVEWESNGQPENNYKTTPPVLDSDGSFLLYSKLTVDKSRWQEGNVFSCSVMHEALHNHYTQKSLSLSLGK light 1: QTVVTQEPSLTVSPGGTVTLTCRSSTGAVTTSNYANWVQQKPGQAPRGLIGGTNKRAPGTPARFSGSLLGGKAALTLSGVQPEDEAEYYCALWYSNLWVFGGGTKLTVLGQPKAAPSVTLFPPSSEELQANKATLVCLISDFYPGAVTVAWKADSSPVKAGVETTTPSKQSNNKYAASSYLSLTPEQWKSHRSYSCQVTHEGSTVEKTVAPTECS heavy 2: not shown light 2: SYVLTQPPSVSVAPGQTARITCGGNNIGSKSVHWYQQPPGQAPVVVVYDDSDRPSGIPERFSGSNSGNTATLTISRVEAGDEAVYYCQVWDSSSDHVVFGGGTKLTVLGQPKAAPSVTLFPPSSEELQANKATLVCLISDFYPGAVTVAWKADSSPVKAGVETTTPSKQSNNKYAASSYLSLTPEQWKSHRSYSCQVTHEGSTVEKTVAPTECS	0.000689	0.00252	0.000395	0.00147	0.58	3.56	2.26e+06	1.93e+06	0.00132	0.00683	0.12	0.75	2 to 3				
BC3B10 (BCMA×CD3 bispecific antibody, BCMB129 × CD3B219) (bispecific antibody, human IgG4 S228P, lambda, F234A L235A, IgG4 made by Fab arm exchange; also called B129 × B219) heavy 1: EVQLVESGGGLVQPGGSLRLSCAASGFTFNTYAMNWVRQAPGKGLEWVARIRSKYNNYATYYAASVKGRFTISRDDSKNSLYLQMNSLKTEDTAVYYCARHGNFGNSYVSWFAYWGQGTLVTVSSASTKGPSVFPLAPCSRSTSESTAALGCLVKDYFPEPVTVSWNSGALTSGVHTFPAVLQSSGLYSLSSVVTVPSSSLGTKTYTCNVDHKPSNTKVDKRVESKYGPPCPPCPAPEAAGGPSVFLFPPKPKDTLMISRTPEVTCVVVDVSQEDPEVQFNWYVDGVEVHNAKTKPREEQFNSTYRVVSVLTVLHQDWLNGKEYKCKVSNKGLPSSIEKTISKAKGQPREPQVYTLPPSQEEMTKNQVSLTCLVKGFYPSDIAVEWESNGQPENNYKTTPPVLDSDGSFLLYSKLTVDKSRWQEGNVFSCSVMHEALHNHYTQKSLSLSLGK light 1: QTVVTQEPSLTVSPGGTVTLTCRSSTGAVTTSNYANWVQQKPGQAPRGLIGGTNKRAPGTPARFSGSLLGGKAALTLSGVQPEDEAEYYCALWYSNLWVFGGGTKLTVLGQPKAAPSVTLFPPSSEELQANKATLVCLISDFYPGAVTVAWKADSSPVKAGVETTTPSKQSNNKYAASSYLSLTPEQWKSHRSYSCQVTHEGSTVEKTVAPTECS heavy 2: not shown light 2: SYVLTQPPSVSVAPGQTARITCGGNNIGSKSVHWYQQPPGQAPVVVVYDDSDRPSGIPERFSGSNSGNTATLTISRVEAGDEAVYYCQVWDSSSDHVVFGGGTKLTVLGQPKAAPSVTLFPPSSEELQANKATLVCLISDFYPGAVTVAWKADSSPVKAGVETTTPSKQSNNKYAASSYLSLTPEQWKSHRSYSCQVTHEGSTVEKTVAPTECS	0.000531	0.00453	0.000359	0.00165	1.5	6.84	1.02e+06	930000	0.00155	0.00636	0.16	1.22					
BCMB123 (antibody, human IgG4 S228P, lambda, F234A L235A, V domains shown, IgG4 S228P, L234A, L235A; also called BCBM123) VH: QLQLQESGPGLVKPSETLSLTCTVSGGSISSSSYFWGWIRQPPGKGLEWIGSIYYSGITYYNPSLKSRVTISVDTSKNQFSLKLSSVTAADTAVYYCARHDGAVAGLFDYWGQGTLVTVSS VL: SYVLTQPPSVSVAPGQTARITCGGNNIGSKSVHWYQQPPGQAPVVVVYDDSDRPSGIPERFSGSNSGNTATLTISRVEAGDEAVYYCQVWDSSSDHVVFGGGTKLTVLG														3 to 15	5.12	0.011	2.14e+06
BCMB177 (antibody, human IgG4 S228P, lambda, F234A L235A, V domains shown, IgG4 S228P, L234A, L235A; also called BCBM177) VH: QLQLQESGPGLVKPSETLSLTCTVSGGSISSSSYFWGWIRQPPGKGLEWIGSIYYSGRTYYNPSLKSRVTISVDTSKNQFSLKLSSVTAADTAVYYCARHDGATAGLFDYWGQGTLVTVSS VL: SYVLTQPPSVSVAPGQTARITCGGNNIGSKSVHWYQQPPGQAPVVVVYDDSDRPSGIPERFSGSNSGNTATLTISRVEAGDEAVYYCQVWDSSSDHVVFGGGTKLTVLG														3 to 15	20.2	0.0566	2.8e+06
BCMB176 (antibody, human IgG4 S228P, lambda, F234A L235A, V domains shown, IgG4 S228P, L234A, L235A; also called BCBM176) VH: QLQLQESGPGLVKPSETLSLTCTVSGGSISSSSYFWGWIRQPPGKGLEWIGSIYYSGITYYNPSLKSRVTISVDTSKNQFSLKLSSVTAADTAVYYCARHDGATAGLFDYWGQGTLVTVSS VL: SYVLTQPPSVSVAPGQTARITCGGNNIGSKSVHWYQQPPGQAPVVVVYDDSDRPSGIPERFSGSNSGNTATLTISRVEAGDEAVYYCQVWDSSSDHVVFGGGTKLTVLG															7.18	0.0288	4e+06
BCMB129 (antibody, human IgG4 S228P, lambda, F234A L235A, V domains shown, IgG4 S228P, L234A, L235A; also called BCBM129) VH: QLQLQESGPGLVKPSETLSLTCTVSGGSISSGSYFWGWIRQPPGKGLEWIGSIYYSGSTYYNPSLKSRVTISVDTSKNQFSLKLSSVTAADTAVYYCARHDGAVAGLFDYWGQGTLVTVSS VL: SYVLTQPPSVSVAPGQTARITCGGNNIGSKSVHWYQQPPGQAPVVVVYDDSDRPSGIPERFSGSNSGNTATLTISRVEAGDEAVYYCQVWDSSSDHVVFGGGTKLTVLG															5.47	0.00843	1.54e+06
BCMB128 (antibody, human IgG4 S228P, lambda, F234A L235A, V domains shown, IgG4 S228P, L234A, L235A; also called BCBM128) VH: QLQLQESGPGLVKPSETLSLTCTVSGGSISSGSYFWGWIRQPPGKGLEWIGSIYYSGITYYNPSLKSRVTISVDTSKNQFSLKLSSVTAADTAVYYCARHDGATAGLFDYWGQGTLVTVSS VL: SYVLTQPPSVSVAPGQTARITCGGNNIGSKSVHWYQQPPGQAPVVVVYDDSDRPSGIPERFSGSNSGNTATLTISRVEAGDEAVYYCQVWDSSSDHVVFGGGTKLTVLG															2.07	0.0087	4.2e+06
